The source of these data is publication PMC9563011.

This experiment deals with IL-2Rα Fc tag (UniProt P01589).
UniProt P01589, sequence (P01589 22-240): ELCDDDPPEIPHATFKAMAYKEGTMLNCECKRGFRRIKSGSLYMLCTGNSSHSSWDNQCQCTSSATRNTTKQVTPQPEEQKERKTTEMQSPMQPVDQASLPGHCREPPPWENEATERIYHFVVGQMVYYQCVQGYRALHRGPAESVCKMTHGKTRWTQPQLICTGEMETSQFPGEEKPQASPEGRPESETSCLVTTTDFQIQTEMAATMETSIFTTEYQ

Consider “IL-2K35C (from UniProt P60568 22-153) (ligand)”, for which the EC50 of CTLL-2 cell proliferation (CellTiter-Glo, 48 h, 50 to 0.002 ng/mL) is 0.014 µg/mL.
